{"source": "patent US20040001830A1", "assay_in_all_cases": "cell-based or functional assay", "key": {"[1]": {"target": "Thromboplastin from human (TF source of the TF-dependent clotting assay) (human) (UniProt P13726)"}, "[2]": {"target": "Recombinant human soluble TF1-209 (human) (UniProt P13726)"}, "Lipidated TF (human)": {"target": "Lipidated TF (human) (UniProt P13726)"}}, "data": [{"substance": "FFR-rFVIIa: FVIIa blocked in the active site with D-Phe-L-Phe-L-Arg-chloromethyl ketone (from UniProt P08709 61-212) (enzyme)", "values": [{"measurement": "IC50, TF-dependent clotting assay (Assay 7)", "setting": "[1]", "result": 0.0044, "unit": "nM"}, {"measurement": "IC50, inhibition of FVIIa/sTF amidolytic activity (Assay 4; 10 nM sTF, 10 nM FVIIa, substrate S2288)", "setting": "[2]", "result": 7, "unit": "nM"}, {"measurement": "IC50, inhibition of FXa generation (Assay 5; 10 pM lipidated TF, 100 pM FVIIa, 50 nM FX)", "setting": "Lipidated TF (human)", "result": 51, "unit": "pM"}]}]}
